Source: article PMC8004985, “Affinity Purification of Angiotensin Converting Enzyme Inhibitory Peptides from Wakame (Undaria Pinnatifida) Using Immobilized ACE on Magnetic Metal Organic Frameworks” (Marine Drugs, 2021)

Columns and labels:
[1] = Enzyme characterisation of free and immobilized ACE (optimum pH, temperature, Ea, Km, Vmax); type: biochemical, pig
Procedure: (§1) The ACE was prepared from pig lung and the precipitates were dialyzed and used as a crude enzyme sample for the immobilization of ACE [6]. Twenty-five milligrams of Fe3O4@ZIF-90 nanoparticles were dispersed in 2 mL of crude sample, and incubated with shaking for a certain time at different temperatures to immobilize the ACE. The immobilized ACE (Fe3O4@ZIF-90-ACE) was magnetically recovered and the precipitate was washed several times by 0.1 M phosphate (PBS) buffer until the supernatant was free of protein. Immobilized ACE was quantified using the Bradford method, which used bovine serum albumin (BSA) as the standard. Finally, the obtained immobilized ACE was stored at −80 °C. Enzyme loading capacity was calculated using Equation (1):(1) Enzyme loading capacity(mg⋅g^−1)=(Total protein content-supernatant protein content) /Total mass of Fe3O4@ZIF-90
(§2) ACE activity was evaluated by measuring the amount of hippuric acid (HA). The assay mixture (0.3 mL) consisted of 130 µL BBS buffer pH 8.3 ([…], containing 0.3 M NaCl), 40 µL HHL (5 mM), and different amounts of the free and immobilized ACE. Incubation was carried out at 37 °C for 10 min and was terminated by addition of HCl (0.1 mL, 1 M). The HA content of the mixture was determined by RP-HPLC (Agilent 1260) at 228 nm with a DAD detector. One unit of ACE enzyme activity (U) was defined as the amount of enzyme catalyzing HHL to generate 1 µM of HA per minute under the experimental conditions.

[2] = Enzymatic stability and reusability of free and immobilized ACE; type: biochemical, pig
Procedure: as §1
To determine thermal stability, the immobilized ACE was dispersed in PBS buffer in the absence of the HHL substrate at 20–60 °C for 1 h. […]
The storage stability of immobilized ACE was determined by storing at −20 °C for 30 days. The enzyme activity was then measured, and the relative activity was compared with that of the untreated ACE. The immobilized ACE was evaluated over six successive cycles to investigate the reusability stability; the first-time detection activity was considered as 100%.
as §2

[3] = HHL substrate, Table S2, Lineweaver-Burk

Ea (activation energy) ([1]; Arrhenius equation, Fig. S5 (c)): 8.535 kcal/mol
B1: free ACE: free angiotensin-I-converting enzyme (protein, UniProt P12821 30-1306, looked up)
Angiotensin-converting enzyme: LDPGLQPGNFSADEAGAQLFAQSYNSSAEQVLFQSVAASWAHDTNITAENARRQEEAALLSQEFAEAWGQKAKELYEPIWQNFTDPQLRRIIGAVRTLGSANLPLAKRQQYNALLSNMSRIYSTAKVCLPNKTATCWSLDPDLTNILASSRSYAMLLFAWEGWHNAAGIPLKPLYEDFTALSNEAYKQDGFTDTGAYWRSWYNSPTFEDDLEHLYQQLEPLYLNLHAFVRRALHRRYGDRYINLRGPIPAHLLGDMWAQSWENIYDMVVPFPDKPNLDVTSTMLQQGWNATHMFRVAEEFFTSLELSPMPPEFWEGSMLEKPADGREVVCHASAWDFYNRKDFRIKQCTRVTMDQLSTVHHEMGHIQYYLQYKDLPVSLRRGANPGFHEAIGDVLALSVSTPEHLHKIGLLDRVTNDTESDINYLLKMALEKIAFLPFGYLVDQWRWGVFSGRTPPSRYNFDWWYLRTKYQGICPPVTRNETHFDAGAKFHVPNVTPYIRYFVSFVLQFQFHEALCKEAGYEGPLHQCDIYRSTKAGAKLRKVLQAGSSRPWQEVLKDMVGLDALDAQPLLKYFQPVTQWLQEQNQQNGEVLGWPEYQWHPPLPDNYPEGIDLVTDEAEASKFVEEYDRTSQVVWNEYAEANWNYNTNITTETSKILLQKNMQIANHTLKYGTQARKFDVNQLQNTTIKRIIKKVQDLERAALPAQELEEYNKILLDMETTYSVATVCHPNGSCLQLEPDLTNVMATSRKYEDLLWAWEGWRDKAGRAILQFYPKYVELINQAARLNGYVDAGDSWRSMYETPSLEQDLERLFQELQPLYLNLHAYVRRALHRHYGAQHINLEGPIPAHLLGNMWAQTWSNIYDLVVPFPSAPSMDTTEAMLKQGWTPRRMFKEADDFFTSLGLLPVPPEFWNKSMLEKPTDGREVVCHASAWDFYNGKDFRIKQCTTVNLEDLVVAHHEMGHIQYFMQYKDLPVALREGANPGFHEAIGDVLALSVSTPKHLHSLNLLSSEGGSDEHDINFLMKMALDKIAFIPFSYLVDQWRWRVFDGSITKENYNQEWWSLRLKYQGLCPPVPRTQGDFDPGAKFHIPSSVPYIRYFVSFIIQFQFHEALCQAAGHTGPLHKCDIYQSKEAGQRLATAMKLGFSRPWPEAMQLITGQPNMSASAMLSYFKPLLDWLRTENELHGEKLGWPQYNWTPNSARSEGPLPDSGRVSFLGLDLDAQQARVGQWLLLFLGIALLVATLGLSQRLFSIRHRSLHRHSHGPQFGSEVELRHS
loss of relative activity between 35°C and 50°C ([1]; 35°C to 50°C): > 40%
Optimum pH ([1]; Fig. S5 (a)): 8.3
optimum temperature ([1]; Fig. S5 (b)): 40 °C
Km [1, 3]: 1960 µM
Vmax [1, 3]: 46.296 mmol/min
catalytic efficiency ([1]; Table S2): 23.596
activity lost on storage ([2]; 30 days, −20 °C): 45.04%
residual activity (thermal stability) ([2]; after heating at 60 °C for 1 h, PBS buffer, absence of HHL): 22.03%
relative activity (pH stability) ([2]; pH 5.0–10.0 (method: pH 5.0–9.0), 1 h): 37.05%
